Molecular target: the molecule itself
Assay: non-reducing SDS-PAGE with Western blot

B1: Recombinant human Prx2 (peroxiredoxin 2) (enzyme, UniProt P32119 2-198, looked up)
chain: ASGNARIGKPAPDFKATAVVDGAFKEVKLSDYKGKYVVLFFYPLDFTFVCPTEIIAFSNRAEDFRKLGCEVLGVSVDSQFTHLAWINTPRKEGGLGPLNIPLLADVTRRLSEDYGVLKTDEGIAYRGLFIIDGKGVLRQITVNDLPVGRSVDEALRLVQAFQYTDEHGEVCPAGWKPGSDTIKPNVDDSKEYFSKHN
For B1, the “stoichiometry N” value was 2.

Reference: publication PMC6938701 (Science Advances, 2020)
